Measurements from the supplement of paper PMC10567573.

B1: INTS3 (parent)
chain: FHPIKETVVEEPVDITPYLDQLDE
B2: CCNC (parent)
chain: QSSHYLQWILDKQDLLKERQKDLK

Variants of: B1
Experiment: protein stability index of a GFP-peptide fusion (GPS, HEK-293T) (PSI 1-6); higher = more stable
Details: c terminus: a fixed tail appended
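Further: lentivirally expressed fusions sorted by FACS into six bins by GFP to DsRed ratio, PSI derived from sequencing read proportions per bin multiplied by bin number.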

Variant | protein stability index
F1A | 5.42
F1I | 4.99
F1K | 5.66
F1E | 5.2
F1G | 5.5
F1D | 5.78
F1C | 5.32
F1H | 5.5

Variants of: B2
Experiment: as above
Details: c terminus: a fixed tail appended

Variant | protein stability index
Q7S | 2.65
Q7R | 2.37
Q7V | 1.97
Q7T | 3.66
Q7W | 2.1
Q7Y | 2.85
L23F | 2.82
L23W | 2.98
L23A | 3.41
L23M | 3.31
L23C | 3.31
L23I | 3.39
L23T | 3.27
L23K | 3.6
L23V | 2.48
L23H | 3.31
L23E | 3.81
L23S | 3.54
L23P | 2.59
L23R | 3.52
L23D | 4.22
L23Y | 1.85
L23N | 3.18
L23G | 4.43
L23Q | 3.83
D14I | 2.55

Variant | protein stability index
D14S | 2.55
D14V | 2.9
D14T | 3.36
D14P | 3.17
D14G | 3.8
D14F | 2.22
D14H | 2.83
D14L | 2.8
D14E | 4.29
D14N | 3.39
D14R | 2.7
D14K | 3.65
D14M | 2.97
D14C | 2.79
D14Y | 2.61
D14A | 2.58
D14W | 2.73
D14Q | 3.48
L15F | 2.54
L15G | 3.44
L15D | 3.47
L15A | 4.19
L15K | 3.66
L15Y | 2.8
L15C | 3.21
L15V | 3.11

Variant | protein stability index
L15W | 3.37
L15S | 3.44
L15P | 3.93
L15N | 3.33
L15H | 3.72
L15T | 3.72
L15Q | 3.94
L15R | 2.78
L15E | 4.08
L15I | 3.11
Q20K | 3.07
Q20N | 3.21
Q20S | 3.38
Q20D | 3.01
Q20F | 2.67
Q20L | 2.17
Q20H | 3.16
Q20T | 3.2
Q20E | 2.96
Q20I | 1.66
Q20A | 3.12
Q20R | 3.5
Q20V | 2.69
Q20M | 1.99
Q20Y | 2.38
Q20W | 1.44

Variant | protein stability index
Q20C | 2.46
Q20P | 2.76
Q20G | 2.98
L10W | 2.54
L10G | 3.76
L10K | 3.6
L10M | 3.41
L10T | 3.34
L10H | 3.52
L10Y | 3.42
L10D | 4.49
L10E | 4.29
L10P | 4.58
L10Q | 4.22
L10V | 3.09
L10I | 2.97
L10C | 3.86
L10F | 3.4
L10N | 4.17
L10R | 3.61
L10S | 4
L10A | 4.22
K24H | 3.29
K24R | 2.57
K24P | 2.4
K24S | 2.81

Variant | protein stability index
K24Q | 2.77
K24F | 2.69
K24C | 2.29
K24T | 2.96
K24E | 3.78
K24N | 3.46
K24M | 2.57
K24G | 3.1
K24Y | 2.17
K24D | 4.08
K24V | 2.92
K24A | 2.66
K24W | 1.78
K24L | 3.19
K24I | 2.21
W8F | 3.77
W8K | 3.87
W8D | 4.55
W8Y | 4.5
W8S | 4.09
W8L | 3.41
W8M | 4.16
W8G | 3.94
W8T | 4.39
W8N | 4.46
W8I | 3.16

Variant | protein stability index
W8C | 3.89
W8V | 3.52
W8E | 4.35
W8Q | 3.96
W8H | 4.03
W8R | 4.18
W8A | 4.42
W8P | 4.29
L16T | 3.73
L16M | 2.52
L16P | 4.26
L16D | 3.58
L16H | 4
L16C | 3.52
L16K | 3.54
L16W | 2.92
L16Q | 4.15
L16S | 4.05
L16I | 3.64
L16R | 3.78
L16E | 4
L16F | 3.23
L16G | 3.43
L16V | 4.04
L16Y | 2.57
L16A | 3.74

Variant | protein stability index
L16N | 4
I9C | 3.9
I9Y | 3.32
I9E | 4.87
I9S | 4
I9H | 3.64
I9A | 4.27
I9W | 3.83
I9K | 4.09
I9N | 4.01
I9Q | 4.21
I9G | 3.67
I9F | 3.98
I9L | 3.36
I9T | 3.74
I9D | 4.82
I9P | 4.6
I9M | 3.53
I9V | 3.09
I9R | 4.12
K12L | 1.72
K12N | 2.79
K12D | 4.21
K12G | 2.41
K12S | 1.98
K12H | 2.83

Variant | protein stability index
K12Y | 2.75
K12C | 2.46
K12P | 3.29
K12V | 2.34
K12W | 1.52
K12F | 2.25
K12E | 3.66
K12A | 2.73
K12T | 2.01
K12Q | 3.25
K12M | 1.92
K12I | 1.71
D11A | 3.01
D11K | 3.09
D11Q | 3.39
D11R | 2.1
D11N | 2.83
D11Y | 3.17
D11V | 2.86
D11P | 3.13
D11T | 2.58
D11G | 2.75
D11F | 2
D11L | 2.72
D11I | 2.26
D11S | 3

Variant | protein stability index
D11C | 2.96
D11E | 3.4
D11H | 2.86
D11M | 2.36
D11W | 2.38
K21F | 1.69
K21C | 2.42
K21T | 3.28
K21P | 3.42
K21Q | 3.02
K21R | 4.05
K21N | 2.57
K21M | 2.9
K21Y | 2.69
K21L | 2.43
K21W | 2.3
K21H | 2.45
K21I | 3.01
K21G | 2.87
K21E | 2.99
K21S | 2.84
K21A | 2.78
K21D | 2.83
E18N | 2.53
E18M | 2.02
E18A | 3.67

Variant | protein stability index
E18C | 2.28
E18H | 2.54
E18F | 2.15
E18G | 2.53
E18S | 2.54
E18W | 1.8
E18L | 2.33
E18V | 2.82
E18Y | 2.2
E18Q | 2.29
E18I | 2.84
E18D | 3.08
E18K | 2.89
E18P | 2.56
E18T | 2.7
E18R | 2.63
Q13R | 2.6
Q13L | 1.85
Q13P | 3.36
Q13W | 2.36
Q13Y | 2.42
Q13S | 2.91
Q13V | 2.76
Q13A | 2.74
Q13K | 3.49
Q13D | 3.82

Variant | protein stability index
Q13T | 2.7
Q13E | 2.71
Q13C | 3.1
Q13I | 2.59
Q13G | 2.94
Q13N | 3.74
Q13H | 2.5
Q13M | 2
Q13F | 2.34
D22S | 2.59
D22L | 2.08
D22T | 2.31
D22Q | 2.1
D22A | 2.61
D22Y | 2.82
D22P | 2.6
D22R | 3.72
D22H | 3.02
D22V | 2.79
D22M | 2.55
D22G | 2.6
D22F | 2.67
D22K | 2.18
D22C | 2.54
D22W | 2.57
D22E | 3.19

Variant | protein stability index
D22N | 2.9
D22I | 2.48
K17M | 3.14
K17E | 3.35
K17W | 1.97
K17Y | 2.09
K17P | 3.38
K17C | 2.71
K17V | 2.82
K17H | 2.93
K17A | 3.21
K17D | 2.94
K17F | 2.62
K17G | 2.96
K17I | 2.09
K17Q | 4.4
K17N | 3.53
K17R | 2.33
K17T | 3.34
K17L | 2.68
K17S | 3.66
R19Q | 3.5
R19T | 3.14
R19H | 3.03
R19W | 2.64
R19F | 2.14

Variant | protein stability index
R19G | 3.25
R19K | 3.27
R19Y | 2.72
R19L | 2.06
R19C | 2.42
R19I | 2.29
R19M | 2.12
R19D | 3.93
R19A | 2.75
R19V | 2.19
R19P | 3.56
R19N | 3.72
R19E | 3.81
R19S | 2.94
